# In patent publication US10813788B2, “Implantable therapeutic device” (ForSight Vision4, Inc., priority 2009, dated 2020):
# “And” between values parts separate entries of the source, which are not always exact repeats. Identical values can stand only once. Like-named read-outs stand apart in the source and are kept apart here.
# Key:
# [1] = Measured release of Lucentis through porous frit structures, Example 15B; assay type: physicochemical; settings: 10 mg/mL Lucentis, 30 uL, 37 C
# From the text: All porous frit structures are 316L SS, Mott Corporation.
# The diameter ranged from 0.031″ to 0.038″, and the length ranged from 0.029 to 0.049. The media grade ranged from 0.1 to 0.3, and the RRI ranged from 0.014 to 0.090.
# Although some of the measurements were excluded, this exclusion is appropriate and associated with in vitro testing conditions that differ substantially from the in vivo model. Five devices were excluded due to bubble growth (10%), and four were excluded due to receiver volume issues at one timepoint for that device (8%). The latter can be an experimental error associated with the volume of the receiver below the assumed value due to evaporation from inadequately sealed vials or due to pipetting error. In some instances the in vitro experimental test apparatus can be sensitive to bubble formation that may differ substantially from the in vivo model as the living eye can resorb oxygen from the therapeutic devices. Bubbles can form as receiver fluid is heated to 37° C. and gas concentrations are greater than their solubilities at 37° C. To minimize the occurrence of bubble formation, receiver solutions were degassed before insertion of the devices.
# [2] = Osmolarity of saline and commercial formulations (Table 1B, calculations); assay type: physicochemical; settings: Summary of Calculations
# From the text: The formulation of therapeutic agent injected into therapeutic device 100 may comprise many known formulations of therapeutic agents, and the formulation therapeutic agent comprises an osmolarity suitable for release for an extended time from device 100.
# The vitreous humor of the eye comprises an osmolarity of about 290 mOsm to about 320 mOsm. Formulations of therapeutic agent having an osmolarity from about 280 mOsm to about 340 mOsm are substantially isotonic and substantially iso-osmotic with respect to the vitreous humor of the eye. Although the formulations listed in Table 1B are substantially iso-osmotic and isotonic with respect to the vitreous of the eye and suitable for injection into the therapeutic device, the formulation of the therapeutic agent injected into the therapeutic device can be hypertonic (hyper-osmotic) or hypotonic (hypo-osmotic) with respect to the tonicity and osmolarity of the vitreous. […]
# [3] = Measured release of ranibizumab 40 and 100 mg/mL from devices with porous titanium frit, device half life 100 days, Example A; assay type: physicochemical; settings: for RRI (mm), Mean: 25 uL device, titanium frit about 0.04 in thick, OD about 0.03 in; for 40 mg/mL Rate, Average / 100 mg/mL Rate, Average: devices with 100 day half life, unit not given
# From the text: No. 2010/0015157, entitled “Antibody Formulations”, the full disclosure of which is incorporated herein by reference.
# Devices were fabricated using the following method. A vessel was made from two subassemblies and a porous frit structure as described herein. […] The intended RRI was about 0.02 based on gas flow measurements and manufacturing as described herein. The implantable devices were manufactured in accordance with the teachings as described herein.
# Devices were filled with formulation using a 33 G needle (TSK) and a standard tuberculin 1-cc syringe (BD). Excess liquid that had exited the porous sintered frit structure during filling was removed by use of a lab tissue and submerging in phosphate buffered saline (PBS, Sigma) and 0.02% sodium azide as a preservative. Each device was suspended in the center of a 1.5 mL microcentrifuge tube by use of a fixture. The tube was filled with 0.5 mL receiver fluid; i.e., PBS that had been degassed to minimize bubble formation. At selected times, the device was removed from the receiver fluid and placed in a new tube containing fresh receiver fluid. […] For the later time points, the sample concentrations were higher and concentration was determined by UV (Perkin Elmer Lambda 35). Drug release rates were calculated from measured concentration, the volume of the receiver fluid and the duration of the collection interval. Drug release rate profiles were plotted at the average elapsed time for each collection interval. RRI was determined via a least squares fit to the model.
# Each formulation was filled into ten devices. Some devices were stopped at 3 and 4 months (n=3 each), leaving four that underwent drug release testing for 180 days.
# [4] = tested on: laser photocoagulation treatment-induced Grade IV choroidal neovascularization (CNV) lesions; settings: intravitreal injection at all doses tested, cynomolgus monkeys; Z. Yao et al., ARVO 2009; cited from earlier work
# [5] = cited from earlier work; for half-life in the vitreous: rabbit and monkey
# [6] = Measured release of ranibizumab 100 mg/mL from devices with porous titanium frit, device half life 250 days, Example B; assay type: physicochemical; settings: for 100 mg/mL Rate, Average: devices with 250 day half life, n = 5
# Protocol: The intended RRI was about 0.008 based on gas flow measurements and manufacturing as described herein. The therapeutic device reservoir volume was about 25 uL.
# The formulation was filled into five devices and all underwent drug release testing for 180 days.
# [7] = human eye; cited from earlier work
# [8] = tested on: size of the lesion / retinal thickness in wet AMD (OCT); assay type: in vivo, human; settings: for Treatment Effect Observed?: OCT decrease in size of the lesion
# From the text: OCT (Optical Coherence Tomography) imaging was used to assess the condition of the region of the macula at the back surface of the treated eye. The OCT technique relies on the measurement of certain properties of light (e.g. echo time, intensity of reflection) that has been directed at the area of study and can measure very small amounts of reflected light. Because these cellular features are essentially transparent it is possible to use OCT methodology to generate three dimensional representations of the area.
# The regions of interest were analyzed with a two dimensional representation of the cross section of the retinal wall at one longitudinal scan location of the OCT image. In these “OCT scan” images is it possible to interrogate very local areas of interest more specifically. The OCT scans were carefully selected to directly compare the thickness and anatomical structure of specific sites within a lesion, pre and post treatment, for the purpose of assessing the effect of injected drug including a reduction in sub-retinal fluid.
# The OCT images were measured the day after injection and at 2-3 days post injection. […]
# [9] = Measured release of ranibizumab 40 and 100 mg/mL from a population of devices, Example C; assay type: physicochemical; settings: at 15 weeks, 25 uL, RRI 0.02
# Protocol: Therapeutic devices having stainless steel porous frit structures and formulations were prepared in accordance with Examples A and B. The devices had volumes of 25 uL and an RRI of 0.02.
# Pressure decay tests of the assembled porous frit structures were conducted as described herein.
# Eighteen devices were injected with the 100 mg/mL formulation and 18 devices were injected with the 40 mg/mL formulation. However, measurements of some devices were stopped for other assays every 4 months so only 6 devices for each formulation have release data through 180 days. The rate of release was measured for 16 weeks, and the amount release after each 2 week interval determined. […] The data indicates a measured rate of 3.5 and 8.1 ug/day at 15 weeks, for the 40 and 100 mg/mL formulation injections, respectively.
substance,measurement,setting,value
ranibizumab [Lucentis],RRI (mm),"[1]; frit 0.031 x 0.049 in, media grade 0.1 um, 2 replicates",0.014 mm
same,RRI (mm),"[1]; frit 0.031 x 0.049 in, media grade 0.2 um, 12 replicates",0.021 mm
same,RRI (mm),"[1]; frit 0.038 x 0.029 in, media grade 0.1 um, 5 replicates",0.039 mm
same,RRI (mm),"[1]; frit 0.038 x 0.029 in, media grade 0.2 um, 14 replicates",0.061 mm
same,RRI (mm),"[1]; frit 0.038 x 0.029 in, media grade 0.3 um, 6 replicates",0.090 mm
same,Osm,[2],0.289 M
same,"RRI (mm), Mean",[3]; 40 mg/mL formulation,0.02 mm and 0.024 mm
same,"RRI (mm), Mean",[3]; 100 mg/mL formulation,0.02 mm and 0.021 mm
same,"40 mg/mL Rate, Average","[3]; Day 90, n = 7",5.52
same,"100 mg/mL Rate, Average","[3]; Day 90, n = 7",9.51
same,"40 mg/mL Rate, Average","[3]; Day 180, n = 4",2.42
same,"100 mg/mL Rate, Average","[3]; Day 180, n = 4",5.13
same,development of Grade IV CNV lesions,[4],completely inhibited
same,Half-life,"[5]; half-life measured for the monkey, parameter of Simulations 1-5 (Table 4A)",63.1 h
same,half-life in the vitreous,[5],two to four
same,half-life in the vitreous,[5]; listed as ranibizumab,approximately 3 days
same,"RRI (mm), Mean","[6]; 100 mg/mL formulation, 25 uL device, titanium frit 0.031 in thick, OD 0.031",0.008 mm
same,"100 mg/mL Rate, Average",[6]; Day 90,5.6 µg/day and 5.59 µg/day
same,"100 mg/mL Rate, Average",[6]; Day 180,4.51 µg/day
same,half-life in the vitreous,[7],~220 h
same,MIC for a sustained release device,"[8]; minimum inhibitory concentration in vivo in human patients, indicated by the low dose study",≤ 1 ug per ml
same,Treatment Effect Observed?,"[8]; single patient, lowest dose administered 10 μg intravitreal",Yes
same,Treatment Effect Observed?,"[8]; single patients, lowest dose administered 5 μg intravitreal",Yes
same,Treatment Effect Observed?,"[8]; single patients, lowest dose administered 20 μg intravitreal",Yes
same,measured rate of release,[9]; 40 mg/mL formulation,3.5 µg/day
same,measured rate of release,[9]; 100 mg/mL formulation,8.1 µg/day
